In WO2001068708A2 (dated 2001) one finds EC50 data, which are given here for three molecules.

Test [1] has as its target T1, fibroblast activating protein alpha (FAPα), cell surface-bound (human, UniProt Q12884 1-760).
T1 construct: whole, on cells; Also used as the target of the FAP-specific immunohistological staining of tumour cryo-sections; also called FAP+ cells; FAP overexpressing fibrosarcoma cells (HT1080)
T1 sequence (looked up): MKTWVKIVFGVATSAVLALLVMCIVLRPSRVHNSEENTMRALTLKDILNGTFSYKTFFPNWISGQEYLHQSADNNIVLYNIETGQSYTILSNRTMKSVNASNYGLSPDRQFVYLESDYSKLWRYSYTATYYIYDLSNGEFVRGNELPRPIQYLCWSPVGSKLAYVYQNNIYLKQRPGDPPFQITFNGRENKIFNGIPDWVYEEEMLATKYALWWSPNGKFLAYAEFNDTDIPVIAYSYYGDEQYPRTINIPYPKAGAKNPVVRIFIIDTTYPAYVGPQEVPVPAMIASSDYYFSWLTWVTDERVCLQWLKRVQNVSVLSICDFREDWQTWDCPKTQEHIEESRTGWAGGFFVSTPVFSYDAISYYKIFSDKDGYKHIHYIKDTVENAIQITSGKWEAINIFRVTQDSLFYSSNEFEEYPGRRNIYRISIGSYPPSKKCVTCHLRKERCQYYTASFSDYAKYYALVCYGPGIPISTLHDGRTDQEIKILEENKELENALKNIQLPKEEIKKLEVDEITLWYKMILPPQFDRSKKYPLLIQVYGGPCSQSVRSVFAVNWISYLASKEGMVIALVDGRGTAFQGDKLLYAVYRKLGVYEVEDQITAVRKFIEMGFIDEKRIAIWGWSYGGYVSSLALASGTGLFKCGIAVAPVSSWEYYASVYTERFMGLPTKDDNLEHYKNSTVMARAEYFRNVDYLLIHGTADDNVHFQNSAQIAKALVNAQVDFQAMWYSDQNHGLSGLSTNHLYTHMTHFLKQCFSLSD
Put plainly: binding to FAP+ cells, cell analyser, half maximal saturation.

In test [2] the target is T2, fibroblast activating protein alpha (FAPα), purified / immobilised antigen (human, UniProt Q12884 27-760, limits assumed).
T2 construct: Antigen coated on ELISA wells and immunotubes; The construct is not described; also called human FAP; immobilized FAP
T2 sequence (looked up): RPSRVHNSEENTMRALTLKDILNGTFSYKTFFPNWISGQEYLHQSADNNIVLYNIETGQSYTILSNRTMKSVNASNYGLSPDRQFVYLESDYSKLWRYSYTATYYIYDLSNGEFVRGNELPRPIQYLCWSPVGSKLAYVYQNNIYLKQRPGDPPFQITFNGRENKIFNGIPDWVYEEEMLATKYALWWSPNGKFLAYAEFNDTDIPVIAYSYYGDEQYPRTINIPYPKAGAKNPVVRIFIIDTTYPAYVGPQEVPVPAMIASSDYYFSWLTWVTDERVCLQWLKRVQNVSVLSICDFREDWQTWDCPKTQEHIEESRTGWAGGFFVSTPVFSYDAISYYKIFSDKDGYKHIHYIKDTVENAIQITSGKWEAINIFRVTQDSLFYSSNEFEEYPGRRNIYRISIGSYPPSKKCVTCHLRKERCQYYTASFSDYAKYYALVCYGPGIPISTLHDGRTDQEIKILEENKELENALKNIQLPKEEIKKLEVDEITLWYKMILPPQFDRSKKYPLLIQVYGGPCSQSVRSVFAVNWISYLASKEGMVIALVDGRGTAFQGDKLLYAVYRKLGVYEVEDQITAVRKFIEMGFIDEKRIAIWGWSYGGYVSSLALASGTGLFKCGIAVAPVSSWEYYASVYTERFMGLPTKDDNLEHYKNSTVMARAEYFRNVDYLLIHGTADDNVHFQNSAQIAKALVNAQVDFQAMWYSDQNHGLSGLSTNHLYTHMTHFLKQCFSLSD
Put plainly: sandwich ELISA, half maximal saturation of binding (SC50), c-myc tag detection.

Test [3] concerns the target T1, fibroblast activating protein alpha …. The experiment in a line: flow cytometry on FAP overexpressing HT1080 cells, half maximal saturation (SC50).

B1: scFv #13 as bivalent in minibody format (other)
chain: QVQLVESGGTLVQPGGSLRLSCAASGFTFSSYAMSWIRQAPGKGLEWVSGISASGGYIDYADSVKGRVTISRDNSKNMAYLQMSSLRAEDTALYYCAKGGNYQMLLDHWGQGTLVTVSSASTKGPKLEEGEFSEARVDIQMTQSPSSLSASTGDRVTITCRASQDISSYLAWYQQAPGKAPHLLMSGATTLQTGVPSRFSGSGSGTDFTLTITSLQSEDFATYYCQQYYIYPPTFGQGTRVEIKRTVAAPSVFAA
Molecule B1 gave an EC50 in test [1] of 8 to 12 nM.

B2: scFv #50 as bivalent in minibody format (other)
chain: QVQLVESGGGLVQPGGSLRLSCAASGFTFSNYWMSWVRQAPGKGLEWVANIKQDGSEKYYVDSVKGRFTISRDNAKNSLYLQMNSLRAEDTAVYYCARGSLCTDGSCPTIGPGPNWGQGTLVTVSSAPTKAPKLEEGEFSEARVDIQMTQSPSSLSASTGDRVTITCRASQDISSYLAWYQQAPGKAPHLLMSGATTLQTGVPSRFSGSGSGTDFTLTITSLQSEDFATYYCQQYYIYPPTFGQGTRVEIKRTVAAPSVFAA
On to B2, for which, in test [1], the EC50 worked out at 32 nM.

B3: scFv F19 (parental murine scFv) (scFv, V domains shown)
VH: EVQLQQSGPELVKPGASVKMSCKTSRYTFTEYTIHWVRQSHGKSLEWIGGINPNNGIPNYNQKFKGRATLTVGKSSSTAYMELRSLTSEDSAVYFCARRRIAYGYDEGHAMDYWGQGTSVTVSS
VL: DIVMSQSPSSLAVSVGEKVTMSCKSSQSLLYSRNQKNYLAWFQQKPGQSPKLLIFWASTRESGVPDRFTGSGFGTDFNLTISSVQAEDLAVYDCQQYFSYPLTFGAGTKLELK
With B3, the EC50 in test [2] and in test [3] was 20 nM in each case.
